Among the data in patent US20240270821A1, “GIP/GLP1/GCG TRI-RECEPTOR AGONISTS AND USES THEREOF” (priority 2023, published 2024) are Relative cAMP EC50 and cAMP Rel EC50 (1% HSA) values, retold here.

The labels stand for the following.
B1: Example 1093 (peptide)
chain: YXQGTFTSDXSQXLDXKAQXAFIEXLIEXGPSSGEPPPSGSEE
modifications: non-natural residues, C18 diacid-(γGlu)2 acyl on K, C-terminal amide; synthetic construct; SITE 2: note = 2-Aminoisobutyric Acid; SITE 10: note = 3-(4-Pyridyl)-L-alanine; SITE 13: note = alpha-methyl-leucine; SITE 16: note = L-ornithine; SITE 17: note = Lysine is chemically modified through conjugation of the epsilon-amino group of the Lysine side chain with (gamma-Gl)
B2: Example 1104 (peptide)
chain: B1 chain with A21Q
modifications: not fully specified; non-natural residues; Lys acylated C18 diacid via γGlu; C-term amide; synthetic construct; SITE 2: note = 2-Aminoisobutyric Acid; SITE 10: note = 3-(4-Pyridyl)-L-alanine; SITE 13: note = alpha-methyl-leucine; SITE 16: note = L-ornithine; SITE 17: note = Lysine is chemically modified through conjugation of the epsilon-amino group of the Lysine side chain with D-Glutami
B3: Example 1103 (peptide)
chain: B1 chain
modifications: not fully specified; Aib, 4Pal, Orn, Me4Pal, αMeY; lipidated Lys; C-terminal amide; synthetic construct; SITE 2: note = 2-Aminoisobutyric Acid; SITE 10: note = 3-(4-Pyridyl)-L-alanine; SITE 13: note = alpha-methyl-leucine; SITE 16: note = L-ornithine; SITE 17: note = Lysine is chemically modified through conjugation of the epsilon-amino group of the Lysine side chain with D-Glutami
B4: Example 1100 (peptide)
chain: B1 chain with A21Q, E28A
modifications: non-natural residues; Lys acylated AEEA-γGlu-C18 diacid; C-terminal amide; synthetic construct; SITE 2: note = 2-Aminoisobutyric Acid; SITE 10: note = 3-(4-Pyridyl)-L-alanine; SITE 13: note = alpha-methyl-leucine; SITE 16: note = L-ornithine; SITE 17: note = Lysine is chemically modified through conjugation of the epsilon-amino group of the Lysine side chain with (2-[2-(2-
B5: Example 1098 (peptide)
chain: B1 chain with A21Q
modifications: non-natural residues, acylated Lys (AEEA-γGlu-C18 diacid), C-terminal amide; synthetic construct; SITE 2: note = 2-Aminoisobutyric Acid; SITE 10: note = 3-(4-Pyridyl)-L-alanine; SITE 13: note = alpha-methyl-leucine; SITE 16: note = L-ornithine; SITE 17: note = Lysine is chemically modified through conjugation of the epsilon-amino group of the Lysine side chain with (2-[2-(2-
B6: Example 1106 (peptide)
chain: B1 chain with A21Q, E28A
modifications: not fully specified; Aib, 4Pal, Orn, Me4Pal, αMeY; lipidated Lys; C-terminal amide; synthetic construct; SITE 2: note = 2-Aminoisobutyric Acid; SITE 10: note = 3-(4-Pyridyl)-L-alanine; SITE 13: note = alpha-methyl-leucine; SITE 16: note = L-ornithine; SITE 17: note = Lysine is chemically modified through conjugation of the epsilon-amino group of the Lysine side chain with D-Glutami
B7: Example 1097 (peptide)
chain: B1 chain
modifications: non-natural residues; acylated Lys; C-terminal amide; synthetic construct; SITE 2: note = 2-Aminoisobutyric Acid; SITE 10: note = 3-(4-Pyridyl)-L-alanine; SITE 13: note = alpha-methyl-leucine; SITE 16: note = L-ornithine; SITE 17: note = Lysine is chemically modified through conjugation of the epsilon-amino group of the Lysine side chain with (2-[2-(2-
B8: Example 1086 (peptide)
chain: YXQGTFTSDXSQXLDKKAQXAFIEYLIAGGPSSGAPPPSGE
modifications: Aib, 4Pal, αMeL, Me4Pal; acylated K; C-terminal amide; synthetic construct; SITE 2: note = 2-Aminoisobutyric Acid; SITE 10: note = 3-(4-Pyridyl)-L-alanine; SITE 13: note = alpha-methyl-leucine; SITE 17: note = Lysine is chemically modified through conjugation of the epsilon-amino group of the Lysine side chain with (Glu)-(gamma-Glu)-CO-(CH2)16-CO2H; SIT
B9: Example 1087 (peptide)
chain: B8 chain
modifications: Aib, 4Pal, αMeL, Me4Pal; acylated lysine; amide; synthetic construct; SITE 2: note = 2-Aminoisobutyric Acid; SITE 10: note = 3-(4-Pyridyl)-L-alanine; SITE 13: note = alpha-methyl-leucine; SITE 17: note = Lysine is chemically modified through conjugation of the epsilon-amino group of the Lysine side chain with (Glu)2-(gamma-Glu)-CO-(CH2)16-CO2H; SI
B10: Example 1088 (peptide)
chain: YXQGTFTSDXSQXLDKKAQXAFIEYLIAGGPSSGAPPPSGEEE
modifications: Aib, 4Pal, αMeL, Me4Pal, acylated K, C-terminal amide; synthetic construct; SITE 2: note = 2-Aminoisobutyric Acid; SITE 10: note = 3-(4-Pyridyl)-L-alanine; SITE 13: note = alpha-methyl-leucine; SITE 17: note = Lysine is chemically modified through conjugation of the epsilon-amino group of the Lysine side chain with D-Glutamic acid-(gamma-Glu)-CO-(CH2)16
B11: Example 1102 (peptide)
chain: B1 chain with X25Y, E28Q
modifications: not fully specified; non-natural residues, γGlu-C18 diacid acyl on K, C-terminal amide; synthetic construct; SITE 2: note = 2-Aminoisobutyric Acid; SITE 10: note = 3-(4-Pyridyl)-L-alanine; SITE 13: note = alpha-methyl-leucine; SITE 16: note = L-ornithine; SITE 17: note = Lysine is chemically modified through conjugation of the epsilon-amino group of the Lysine side chain with D-Glutami

Substitutions are numbered along the chain they refer to.

human glucagon receptor (human), sequence (P47871 26-477): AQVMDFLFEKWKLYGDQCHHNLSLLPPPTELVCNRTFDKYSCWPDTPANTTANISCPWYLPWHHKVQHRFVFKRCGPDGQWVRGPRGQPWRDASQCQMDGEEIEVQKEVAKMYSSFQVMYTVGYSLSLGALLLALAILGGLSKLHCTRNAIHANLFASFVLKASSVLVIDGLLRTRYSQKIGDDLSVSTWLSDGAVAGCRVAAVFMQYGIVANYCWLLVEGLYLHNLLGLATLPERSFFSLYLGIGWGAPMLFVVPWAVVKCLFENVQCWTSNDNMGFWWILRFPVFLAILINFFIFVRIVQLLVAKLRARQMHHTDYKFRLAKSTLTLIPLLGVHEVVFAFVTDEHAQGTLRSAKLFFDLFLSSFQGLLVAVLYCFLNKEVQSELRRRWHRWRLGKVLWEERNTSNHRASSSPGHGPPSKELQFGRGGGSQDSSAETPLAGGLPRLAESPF

The first assay concerns the target human glucagon receptor (human) (UniProt P47871). Nature of the assay: cell-based or functional assay.
B1 showed a Relative cAMP EC50 of 7.72 nM and a cAMP Rel EC50 (1% HSA) of 958 nM.

In turn, B2 registered a Relative cAMP EC50 of 11.1 nM and a cAMP Rel EC50 (1% HSA) of 1470 nM.

The molecule B3 came in with a Relative cAMP EC50 of 11.1 nM and a cAMP Rel EC50 (1% HSA) of 1350 nM.

Molecule B4 yielded a Relative cAMP EC50 of 5.28 nM and a cAMP Rel EC50 (1% HSA) of 577 nM.

Consider B5, for which the Relative cAMP EC50 amounted to 6.2 nM and the cAMP Rel EC50 (1% HSA) was determined as 994 nM.

B6 came in with a Relative cAMP EC50 of 7.71 nM and a cAMP Rel EC50 (1% HSA) of 1030 nM.

The molecule B7 returned a Relative cAMP EC50 of 6.16 nM and a cAMP Rel EC50 (1% HSA) of 752 nM.

With B8, the Relative cAMP EC50 came to 12 nM and the cAMP Rel EC50 (1% HSA) worked out at 3140 nM.

Molecule B9 yielded a Relative cAMP EC50 of 15.4 nM and a cAMP Rel EC50 (1% HSA) of 2460 nM.

The molecule B10 gave a Relative cAMP EC50 of 14.8 nM and a cAMP Rel EC50 (1% HSA) of 1710 nM.

As to B11, the Relative cAMP EC50 came to 4.37 nM and the cAMP Rel EC50 (1% HSA) came out at 516 nM.

The next assay has as its target T1, human GIP receptor (human) (UniProt P48546).
T1 sequence (looked up): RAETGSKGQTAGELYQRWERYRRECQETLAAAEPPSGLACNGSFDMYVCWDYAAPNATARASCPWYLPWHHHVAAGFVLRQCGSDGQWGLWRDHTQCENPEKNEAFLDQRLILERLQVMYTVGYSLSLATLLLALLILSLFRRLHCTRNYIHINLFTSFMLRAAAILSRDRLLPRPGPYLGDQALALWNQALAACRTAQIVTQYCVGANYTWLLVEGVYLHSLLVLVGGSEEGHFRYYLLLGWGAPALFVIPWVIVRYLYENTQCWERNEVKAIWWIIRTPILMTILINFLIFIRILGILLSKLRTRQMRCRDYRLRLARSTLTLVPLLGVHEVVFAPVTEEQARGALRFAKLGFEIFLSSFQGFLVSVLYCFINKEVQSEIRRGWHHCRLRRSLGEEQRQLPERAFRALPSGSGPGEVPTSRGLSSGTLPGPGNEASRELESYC
Kind of assay: cell-based or functional assay.
B1 displayed a Relative cAMP EC50 of 0.152 nM and a cAMP Rel EC50 (1% HSA) of 26.8 nM.

B2 gave a Relative cAMP EC50 of 0.09 nM and a cAMP Rel EC50 (1% HSA) of 13.9 nM.

The molecule B3 yielded a Relative cAMP EC50 of 0.0723 nM and a cAMP Rel EC50 (1% HSA) of 19.5 nM.

For B4, the Relative cAMP EC50 turned out to be 0.0694 nM and the cAMP Rel EC50 (1% HSA) came to 9.04 nM.

In turn, B5 showed a Relative cAMP EC50 of 0.201 nM and a cAMP Rel EC50 (1% HSA) of 31.2 nM.

Take B6: the Relative cAMP EC50 was 0.0312 nM and the cAMP Rel EC50 (1% HSA) amounted to 4.23 nM.

As to B7, the Relative cAMP EC50 came to 0.136 nM and the cAMP Rel EC50 (1% HSA) was 27.3 nM.

As for B8, the Relative cAMP EC50 was determined as 0.117 nM and the cAMP Rel EC50 (1% HSA) was 21.2 nM.

B9 yielded a Relative cAMP EC50 of 0.207 nM and a cAMP Rel EC50 (1% HSA) of 23.3 nM.

Regarding B10, the Relative cAMP EC50 turned out to be 0.182 nM and the cAMP Rel EC50 (1% HSA) was found to be 15.6 nM.

The molecule B11 yielded a Relative cAMP EC50 of 0.0418 nM and a cAMP Rel EC50 (1% HSA) of 5.12 nM.

In the next assay the target is hGLP-1R (Homo sapiens, UniProt P43220). Kind of assay: cell-based or functional assay.
hGLP-1R, sequence (P43220 24-463): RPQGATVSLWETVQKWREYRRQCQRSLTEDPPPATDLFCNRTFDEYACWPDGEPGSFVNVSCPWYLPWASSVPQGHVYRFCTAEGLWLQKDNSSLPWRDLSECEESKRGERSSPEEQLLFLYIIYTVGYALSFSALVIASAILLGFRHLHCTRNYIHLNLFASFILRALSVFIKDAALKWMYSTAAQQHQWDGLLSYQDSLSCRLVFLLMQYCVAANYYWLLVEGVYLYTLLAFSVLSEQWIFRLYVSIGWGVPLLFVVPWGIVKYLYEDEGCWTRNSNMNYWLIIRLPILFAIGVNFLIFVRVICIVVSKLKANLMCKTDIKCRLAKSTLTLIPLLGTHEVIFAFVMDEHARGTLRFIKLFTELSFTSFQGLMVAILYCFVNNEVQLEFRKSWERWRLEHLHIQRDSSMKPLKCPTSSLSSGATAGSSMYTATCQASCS
B1 yielded a Relative cAMP EC50 of 0.954 nM and a cAMP Rel EC50 (1% HSA) of 141 nM.

As to B2, the Relative cAMP EC50 amounted to 1.7 nM and the cAMP Rel EC50 (1% HSA) stood at 272 nM.

In the case of B3, the Relative cAMP EC50 turned out to be 1.06 nM and the cAMP Rel EC50 (1% HSA) is 183 nM.

The molecule B4 registered a Relative cAMP EC50 of 0.514 nM and a cAMP Rel EC50 (1% HSA) of 77.2 nM.

B5 yielded a Relative cAMP EC50 of 1.22 nM and a cAMP Rel EC50 (1% HSA) of 184 nM.

The molecule B6 registered a Relative cAMP EC50 of 0.87 nM and a cAMP Rel EC50 (1% HSA) of 119 nM.

Molecule B7 had a Relative cAMP EC50 of 1.59 nM and a cAMP Rel EC50 (1% HSA) of 141 nM.

With B8, the Relative cAMP EC50 was found to be 1.23 nM and the cAMP Rel EC50 (1% HSA) was found to be 496 nM.

For B9, the Relative cAMP EC50 was 2.63 nM and the cAMP Rel EC50 (1% HSA) is 439 nM.

On to B10, for which the Relative cAMP EC50 was 2.99 nM and the cAMP Rel EC50 (1% HSA) came to 367 nM.

The molecule B11 gave a Relative cAMP EC50 of 2.18 nM and a cAMP Rel EC50 (1% HSA) of 295 nM.
